In patent US20220227830A1, “QD DOSING OF GIP RECEPTOR AGONIST PEPTIDE COMPOUNDS AND USES THEREOF” (Takeda Pharmaceutical Company Limited, priority 2020, published 2022):
Starred links: 1 amine or outer side, 2 acyl side, 3 side chain; linkers in the order of their positions; H or OH if unused. Non-standard residues stand in square brackets, D forms with d. Groups on a side chain read outwards from the residue. No end group written: not given here. *: point of attachment. G2E3 = linker of 2 Gly and 3 Glu (read GGEEE); C15 diacid = O=C(O)CCCCCCCCCCCCCC(=O)*; γGlu = O=C(O)[C@H](CCC(=O)[*:2])N[*:1]; NMeY = CN[C@@H](Cc1ccc(O)cc1)C(=O)O; AEEA = NCCOCCOCC(=O)O; Aib = CC(C)(N)C(=O)O

B1: Compound 26 (peptide)
peptide: [NMeY][Aib]EGTFISDYSIAK([AEEA-AEEA-γGlu-γGlu-C15 diacid])DR[Aib]AQ[Aib]NFVNWLLAQK-OH
modifications: N-terminus assumed
SMILES: CC[C@H](C)[C@H](NC(=O)[C@H](CO)NC(=O)[C@H](Cc1ccc(O)cc1)NC(=O)[C@H](CC(=O)O)NC(=O)[C@H](CO)NC(=O)[C@@H](NC(=O)[C@H](Cc1ccccc1)NC(=O)[C@@H](NC(=O)CNC(=O)[C@H](CCC(=O)O)NC(=O)C(C)(C)NC(=O)[C@H](Cc1ccc(O)cc1)NC)[C@@H](C)O)[C@@H](C)CC)C(=O)N[C@@H](C)C(=O)N[C@@H](CCCCNC(=O)COCCOCCNC(=O)COCCOCCNC(=O)CC[C@H](NC(=O)CC[C@H](NC(=O)CCCCCCCCCCCCCC(=O)O)C(=O)O)C(=O)O)C(=O)N[C@@H](CC(=O)O)C(=O)N[C@@H](CCCNC(=N)N)C(=O)NC(C)(C)C(=O)N[C@@H](C)C(=O)N[C@@H](CCC(N)=O)C(=O)NC(C)(C)C(=O)N[C@@H](CC(N)=O)C(=O)N[C@@H](Cc1ccccc1)C(=O)N[C@H](C(=O)N[C@@H](CC(N)=O)C(=O)N[C@@H](Cc1c[nH]c2ccccc12)C(=O)N[C@@H](CC(C)C)C(=O)N[C@@H](CC(C)C)C(=O)N[C@@H](C)C(=O)N[C@@H](CCC(N)=O)C(=O)N[C@@H](CCCCN)C(=O)O)C(C)C
B2: Compound 27 (peptide)
peptide: [NMeY][Aib]EGTFISDYSIALDR[Aib]AQ[Aib]K([AEEA-AEEA-γGlu-γGlu-C15 diacid])FVNWLLAQK-OH
modifications: N-terminus assumed
SMILES: CC[C@H](C)[C@H](NC(=O)[C@H](CO)NC(=O)[C@H](Cc1ccc(O)cc1)NC(=O)[C@H](CC(=O)O)NC(=O)[C@H](CO)NC(=O)[C@@H](NC(=O)[C@H](Cc1ccccc1)NC(=O)[C@@H](NC(=O)CNC(=O)[C@H](CCC(=O)O)NC(=O)C(C)(C)NC(=O)[C@H](Cc1ccc(O)cc1)NC)[C@@H](C)O)[C@@H](C)CC)C(=O)N[C@@H](C)C(=O)N[C@@H](CC(C)C)C(=O)N[C@@H](CC(=O)O)C(=O)N[C@@H](CCCNC(=N)N)C(=O)NC(C)(C)C(=O)N[C@@H](C)C(=O)N[C@@H](CCC(N)=O)C(=O)NC(C)(C)C(=O)N[C@@H](CCCCNC(=O)COCCOCCNC(=O)COCCOCCNC(=O)CC[C@H](NC(=O)CC[C@H](NC(=O)CCCCCCCCCCCCCC(=O)O)C(=O)O)C(=O)O)C(=O)N[C@@H](Cc1ccccc1)C(=O)N[C@H](C(=O)N[C@@H](CC(N)=O)C(=O)N[C@@H](Cc1c[nH]c2ccccc12)C(=O)N[C@@H](CC(C)C)C(=O)N[C@@H](CC(C)C)C(=O)N[C@@H](C)C(=O)N[C@@H](CCC(N)=O)C(=O)N[C@@H](CCCCN)C(=O)O)C(C)C
B3: Compound 28 (peptide)
peptide: [NMeY][Aib]EGTFISDYSIAK([AEEA-γGlu-γGlu-γGlu-C15 diacid])DR[Aib]AQ[Aib]NFVNWLL[Aib]QK-NH2
modifications: N-terminus assumed
SMILES: CC[C@H](C)[C@H](NC(=O)[C@H](CO)NC(=O)[C@H](Cc1ccc(O)cc1)NC(=O)[C@H](CC(=O)O)NC(=O)[C@H](CO)NC(=O)[C@@H](NC(=O)[C@H](Cc1ccccc1)NC(=O)[C@@H](NC(=O)CNC(=O)[C@H](CCC(=O)O)NC(=O)C(C)(C)NC(=O)[C@H](Cc1ccc(O)cc1)NC)[C@@H](C)O)[C@@H](C)CC)C(=O)N[C@@H](C)C(=O)N[C@@H](CCCCNC(=O)COCCOCCNC(=O)CC[C@H](NC(=O)CC[C@H](NC(=O)CC[C@H](NC(=O)CCCCCCCCCCCCCC(=O)O)C(=O)O)C(=O)O)C(=O)O)C(=O)N[C@@H](CC(=O)O)C(=O)N[C@@H](CCCNC(=N)N)C(=O)NC(C)(C)C(=O)N[C@@H](C)C(=O)N[C@@H](CCC(N)=O)C(=O)NC(C)(C)C(=O)N[C@@H](CC(N)=O)C(=O)N[C@@H](Cc1ccccc1)C(=O)N[C@H](C(=O)N[C@@H](CC(N)=O)C(=O)N[C@@H](Cc1c[nH]c2ccccc12)C(=O)N[C@@H](CC(C)C)C(=O)N[C@@H](CC(C)C)C(=O)NC(C)(C)C(=O)N[C@@H](CCC(N)=O)C(=O)N[C@@H](CCCCN)C(N)=O)C(C)C

What was measured:
[1] = molecular target: T1, full-length human GIPR with an N-terminal FLAG tag (human, UniProt P48546 22-466); test: cell-based or functional assay
T1 sequence (looked up): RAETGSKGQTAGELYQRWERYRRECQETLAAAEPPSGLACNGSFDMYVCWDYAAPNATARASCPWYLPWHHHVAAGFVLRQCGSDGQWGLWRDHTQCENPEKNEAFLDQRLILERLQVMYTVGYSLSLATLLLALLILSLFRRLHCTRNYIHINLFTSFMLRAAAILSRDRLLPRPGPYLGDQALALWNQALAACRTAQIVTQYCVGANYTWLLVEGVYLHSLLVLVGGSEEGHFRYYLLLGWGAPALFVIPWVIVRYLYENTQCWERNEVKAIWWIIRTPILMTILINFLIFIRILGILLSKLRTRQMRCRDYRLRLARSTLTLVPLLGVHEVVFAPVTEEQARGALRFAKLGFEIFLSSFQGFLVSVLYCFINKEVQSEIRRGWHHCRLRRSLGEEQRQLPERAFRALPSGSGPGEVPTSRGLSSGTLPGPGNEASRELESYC

[2] = molecular target: full-length human GLP-1R with an N-terminal FLAG tag (human, UniProt P43220 24-463); test: cell-based or functional assay

Binder	Human GIPR cAMP, HEK293T EC50 [1]	Human GLP1R cAMP HEK293T EC50 [2]
Me-Y[Aib]EGTFISDYSIAKDR[Aib]AQ[Aib]DFVNWLLAQRPSSGAPPPS-OH (not fully specified (residues 1, 14)) [Compound 146]	0.0005 nM	112 nM
Me-Y[Aib]EGTFISDYSIAKDR[Aib]AQ[Aib]NFVNWLLAQRPSSGAPPPS-OH (not fully specified (residues 1, 14)) [Compound 147]	0.0011 nM	16.6 nM
Me-Y[Aib]EGTFISDYSIALDR[Aib]AQ[Aib]K([AEEA-AEEA-γGlu-γGlu-C15 diacid])FVNWLLAQSG-OH [Compound 149]	0.0007 nM	25.7 nM
Me-Y[Aib]EGTFISDYSIAKDR[Aib]AQ[Aib]NFVNWLLAQSPSSGAPPPS-OH (not fully specified (residues 1, 14)) [Compound 150]	0.0003 nM	30.2 nM
Me-Y[Aib]EGTFISDYSIAKDR[Aib]AQ[Aib]DFVNWLLAQSPSSGAPPPS-NH2 (not fully specified (residues 1, 14)) [Compound 151]	0.0004 nM	145 nM
Me-Y[Aib]EGTFISDYSIAKDR[Aib]AQ[Aib]DFVNWLLAQSPSSGAPPPG-OH (not fully specified (residues 1, 14)) [Compound 152]	0.0003 nM	302 nM
Me-Y[Aib]EGTFISDYSIAKDS[Aib]AQ[Aib]DFVNWLLAQRPSSGAPPPS-NH2 (not fully specified (residues 1, 14)) [Compound 153]	0.0002 nM	389 nM
Me-Y[Aib]EGTFISDYSIAKDS[Aib]AQ[Aib]NFVNWLLAQSPSSGAPPPS-NH2 (not fully specified (residues 1, 14)) [Compound 154]	0.0003 nM	288 nM
Me-Y[Aib]EGTFISDYSIAKDR[Aib]AQ[Aib]DFVNWLLAQSPSSGAPPPS-OH (not fully specified (residues 1, 14)) [Compound 155]	0.0003 nM	295 nM
Me-Y[Aib]EGTFISDYSI[Aib]KDR[Aib]AQ[Aib]DFVNWLLAQSPSSGAPPPS-OH (not fully specified (residues 1, 14)) [Compound 156]	0.0002 nM	89.1 nM
[NMeY][Aib]EGTFISDYSIALDR[Aib]AQ[Aib]K([AEEA-AEEA-γGlu-γGlu-C15 diacid])FVNWLLAQR (not fully specified (N-terminus, C-terminus)) [Compound 15]	0.0003 nM	155 nM
Me-Y[Aib]EGTFISDYSIAK([AEEA-AEEA-γGlu-γGlu-C15 diacid])DR[Aib]AQ[Aib]NFVNWLLAQS (not fully specified (residue 1)) [Compound 16]	0.0003 nM	263 nM
Me-Y[Aib]EGTFISDYSIAK([γGlu-γGlu-γGlu-C15 diacid])DR[Aib]AQ[Aib]NFVNWLLAQSPSSGAPPPS-NH2 [Compound 18]	0.0002 nM	1000 nM
Me-Y[Aib]EGTFISDYSIAK([2OEG-γGlu-γGlu-C15 diacid])DR[Aib]AQ[Aib]NFVNWLLAQK-NH2 [Compound 22]	0.0003 nM	631 nM
Me-Y[Aib]EGTFISDYSIAK([AEEA-γGlu-γGlu-γGlu-C15 diacid])DR[Aib]AQ[Aib]NFVNWLLAQK-NH2 [Compound 23]	0.0004 nM	363 nM
Me-Y[Aib]EGTFISDYSIALDR[Aib]AQ[Aib]K([AEEA-γGlu-γGlu-γGlu-C15 diacid])FVNWLLAQK-NH2 [Compound 24]	0.0004 nM	16.9 nM
B1	0.0003 nM	1000 nM
B2	0.0006 nM	145 nM
B3	0.0001 nM	60.3 nM
[NMeY][Aib]EGTFISDYSIAK([G2E3-C15 diacid])DR[Aib]AQ[Aib]NFVNWLLAQK-NH2 [Compound 30]	0.0001 nM	442 nM
[NMeY][Aib]EGTFISDYSIALDR[Aib]AQ[Aib]K([G2E3-C15 diacid])FVNWLLAQK-NH2 [Compound 31]	0.0002 nM	0.776 nM
